We go through one substance from article PMC3511649.

The term Kd denotes the constant that tells how readily two partners part at equilibrium. A low value points to tighter binding.

The target of experiment [1] is OG488-EGR labeled Gla-domainless factor IXa (GD-FIXa) (human) (UniProt P00740). Description: fluorescence polarisation.
In experiment [2] the target is OG488-EGR labeled wild-type factor IXa (human) (UniProt P00740). Description: fluorescence polarisation. Background: Fluorescence polarisation rises when a labelled molecule tumbles more slowly, as on binding a larger partner.

Chain of UniProt P00740 (P00740 47-191, chain 1 of 2): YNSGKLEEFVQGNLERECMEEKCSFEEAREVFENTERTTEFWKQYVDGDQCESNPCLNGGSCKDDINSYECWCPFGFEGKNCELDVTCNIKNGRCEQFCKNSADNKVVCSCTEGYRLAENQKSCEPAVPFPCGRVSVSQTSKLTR
Chain of UniProt P00740 (P00740 227-461, chain 2 of 2): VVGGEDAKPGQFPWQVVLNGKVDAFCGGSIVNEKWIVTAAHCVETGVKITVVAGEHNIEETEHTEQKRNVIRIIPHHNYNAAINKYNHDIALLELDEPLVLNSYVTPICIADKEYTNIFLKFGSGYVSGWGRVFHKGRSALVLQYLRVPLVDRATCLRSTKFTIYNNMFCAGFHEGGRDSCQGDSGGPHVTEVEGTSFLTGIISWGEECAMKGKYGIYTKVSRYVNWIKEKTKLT

With “human recombinant factor VIIIa (complex)”, the Kd in experiment [1] was found to be 310 nM; in experiment [2] it was 1.5 nM.
